Results: the RNAGym collection of RNA variant scans (doi:10.1073/pnas.2313332121)

B1: TPR t1 (parent)
chain: GACCAAUCUGCCCUCAGAGCUCGAGAACAUCUUCGGAUGCAGAGGAGGCAGGCUUCGGUGGCGCGAUAGCGCCAACGUCCUCAACCUCCAAUGCAUCCCACCACAUGAUGAUGCCUGAAGAGCCUUGGUUUUUUG

Variants of: B1
Assay: polymerase ribozyme fitness, log enrichment relative to wild type (log ratio); higher = more active; in vitro selection for triplet polymerase activity
How it was run: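 Fitness measures genotype enrichment against wild-type enrichment on a logarithmic scale, with inverse-variance-weighted averaging of replicates. The logarithm is base 2, and genotypes were kept only with ≥10 input reads and ≥1 read per output in Illumina sequencing. The sequenced libraries came from one triplicate in vitro selection round, including frozen incubation at −7 °C, of PCR-built, transcribed mutant libraries of each subunit of a heterodimeric triplet polymerase ribozyme.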

Compared with A27C G57C C85A G135U, A27U A68G is lower in “polymerase ribozyme fitness (log ratio)” value: -4.97 for the first, -5.61 for the second.

Compared with A27G A74G C115A, A27G G69U A74U is higher in “polymerase ribozyme fitness (log ratio)” value: -4.15 for the first, -2.9 for the second.

Compared with A26U U38G A43U C73G C76U A111G, A26U G48C is higher in “polymerase ribozyme fitness (log ratio)” value: -7.42 for the first, -3.53 for the second.

Going from A27G G71A to A27G A41G C86A, the “polymerase ribozyme fitness (log ratio)” value falls from -1.68 to -2.64.

Going from A27C C70U to A27G U32A G36U G44A G63C C76A, the “polymerase ribozyme fitness (log ratio)” value falls from -3.87 to -7.06.

First: A27U A37C U59C
Second: A26U G71A C94U C123G U132C
The “polymerase ribozyme fitness (log ratio)” value of the first is lower: -3.36 for the first, -2.78 for the second.

First: A26U G128C
Second: A27G C34G A43C G45U C115A
The “polymerase ribozyme fitness (log ratio)” value of the first is higher: -4.92 for the first, -7.59 for the second.

Compared with A26U G60A, A26U G60U is higher in “polymerase ribozyme fitness (log ratio)” value: -3.74 for the first, -3.37 for the second.

Compared with A27G A103U U112A U130C, A27C G51U C76U C115G C124G U131A G135U is lower in “polymerase ribozyme fitness (log ratio)” value: -5.43 for the first, -7.29 for the second.

A27G A41G G71A and A27G G110U are within 0.2 log units of each other in “polymerase ribozyme fitness (log ratio)” value: -2.99 for the first, -3.11 for the second.

First: A27G G110A
Second: A27G U38A A83C
The “polymerase ribozyme fitness (log ratio)” value of the first is higher: -1.89 for the first, -2.58 for the second.

First: A27G A29U C73U U125A
Second: A27G C40G G107C C115U G120U U131A
The “polymerase ribozyme fitness (log ratio)” value of the first is higher: -3.73 for the first, -5.69 for the second.

A27C C72G U81C and A27C G57A C123A are within 0.2 log units of each other in “polymerase ribozyme fitness (log ratio)” value: -4.5 for the first, -4.55 for the second.

Going from A27G G45A G58A G61A A91G to A26U U38A, the “polymerase ribozyme fitness (log ratio)” value rises from -5.18 to -4.53.

Compared with A27G A100U, A26U U96A C97A C124U is lower in “polymerase ribozyme fitness (log ratio)” value: -3.23 for the first, -5.98 for the second.

First: A27C A29G C62A
Second: A27C C72U C124U
The “polymerase ribozyme fitness (log ratio)” value of the first is lower: -5.73 for the first, -0.653 for the second.

Going from A27G G120C to A27G G120A, the “polymerase ribozyme fitness (log ratio)” value falls from -0.195 to -1.1.

Compared with A27C A50G G63U G110C U125G, A27C C72U is higher in “polymerase ribozyme fitness (log ratio)” value: -6.71 for the first, -2.78 for the second.

First: A26U G71A C72U A90C U106A
Second: A27G G51A G61C
The “polymerase ribozyme fitness (log ratio)” value of the first is lower: -5.08 for the first, -4 for the second.

Going from A27C U54C C70U to A26U G48C C86G, the “polymerase ribozyme fitness (log ratio)” value rises from -4.38 to -3.65.

Going from A27C G36A G48U A84U G113C G117U C123G to A27C C49G G77U, the “polymerase ribozyme fitness (log ratio)” value rises from -8.45 to -5.08.

Going from A27U A29C G47A C53G A121C to A27C C62U U92G, the “polymerase ribozyme fitness (log ratio)” value falls from -3.53 to -5.85.

First: A27G U38A C73U A83C
Second: A27C A46C C56G
The “polymerase ribozyme fitness (log ratio)” value of the first is higher: -3.53 for the first, -4.61 for the second.

Compared with A27C G35U C64U C80U U109A, A27G C98U is higher in “polymerase ribozyme fitness (log ratio)” value: -7.59 for the first, -3.4 for the second.

Compared with A27C G42C G71U G120C U126A U130G, A27C G71U is higher in “polymerase ribozyme fitness (log ratio)” value: -6.82 for the first, -3 for the second.

Going from A27U A50G U133A to A27C A90U, the “polymerase ribozyme fitness (log ratio)” value falls from -2.6 to -5.3.

First: A27G C28G
Second: A26U G60C C86G
The “polymerase ribozyme fitness (log ratio)” value of the first is higher: -4.25 for the first, -4.99 for the second.

Compared with A27G C28U G47U G58C, A27G A83G G93A is higher in “polymerase ribozyme fitness (log ratio)” value: -3.68 for the first, -3 for the second.

Compared with A27C A29U C56G, A27G C70U U131A is higher in “polymerase ribozyme fitness (log ratio)” value: -4.23 for the first, -3.2 for the second.

Going from A27C C79U A91C G120A to A27G A100U G120U, the “polymerase ribozyme fitness (log ratio)” value rises from -4.64 to -3.21.

Going from A27G C102U A103G U112G to A27G U33G G63C G120A C123U, the “polymerase ribozyme fitness (log ratio)” value rises from -7.77 to -5.79.

Going from A26U U78A G110U G120C U133G to A26U G61U C79U G93C G120C, the “polymerase ribozyme fitness (log ratio)” value rises from -7.89 to -3.87.

Compared with A27C G61U G110A C123G, A27C C73U is higher in “polymerase ribozyme fitness (log ratio)” value: -3.8 for the first, -3.12 for the second.

First: A27C G47U
Second: A27C U81C C124A
The “polymerase ribozyme fitness (log ratio)” value of the first is lower: -4.29 for the first, -2.25 for the second.

Compared with A27C U112C, A26U G61A U116G A121G is lower in “polymerase ribozyme fitness (log ratio)” value: -1.2 for the first, -2.88 for the second.

Going from A27G C72A G93C G120U to A26U U126G, the “polymerase ribozyme fitness (log ratio)” value falls from -2.9 to -4.96.

First: A27G G45U G71U U96G G120U
Second: A26U G52U C56U
The “polymerase ribozyme fitness (log ratio)” value of the first is lower: -4.73 for the first, -3.49 for the second.

Compared with A27C A68G G71U, A27G G39A C53A C85A C89A G113C is higher in “polymerase ribozyme fitness (log ratio)” value: -6.32 for the first, -5.16 for the second.

Going from A26U G65A G93C C98U C123U to A27C U55C C70U U129G, the “polymerase ribozyme fitness (log ratio)” value rises from -6.78 to -4.99.

A27C G48U and A27C G44U C64U are within 0.2 log units of each other in “polymerase ribozyme fitness (log ratio)” value: -4.11 for the first, -4.14 for the second.

Compared with A27G C64A C115G, A27C U55G is higher in “polymerase ribozyme fitness (log ratio)” value: -7.5 for the first, -2.72 for the second.

With A27U A41U the “polymerase ribozyme fitness (log ratio)” value was -4.42.
